Our source for the Kd, koff and kon values is patent US20080175847A1 (Genentech, published 2008).

Substitutions are numbered along the chain they refer to.

Assay [1] concerns the target T1, C-terminal His-tagged human DLL4 (amino acid 1-404) (human, UniProt Q9NR61 26-404).
T1 construct: range 26-404; the text calls it human DLL4-His; also called DLL4-His; human DLL4-His; not shown: C-terminal His tag
As to the kind of experiment: SPR BIAcore-3000, antibody coupled to CM5 chip, DLL4-His injected, 25 C. Here is the method: (§1) To determine the binding affinity of the anti-DLL4 Mabs, surface plasmon resonance (SRP) measurement with a BIAcore™-3000 was used (BIAcore, Inc., Piscataway, N.J.). Briefly, carboxymethylated dextran biosensor chips (CM5, BIAcore Inc.) were activated with N-ethyl-N′-(3-dimethylaminopropyl)-carbodiimide hydrochloride (EDC) and N-hydroxysuccinimide (NHS) according to the supplier's instructions. […] Next, IM ethanolamine was injected to block unreacted groups. […] Association rates (kon) and dissociation rates (koff) were calculated using a simple one-to-one Langmuir binding model (BIAcore Evaluation Software version 3.2). The equilibrium dissociation constant (Kd) was calculated as the ratio koff/kon.

For another assay, the target named is T2, His-tagged murine DLL4 (murine, UniProt Q9JI71 27-405, limits assumed).
T2 construct: domain: ECD5.5; also called murine DLL4-His; murine Delta4 (ECD5.5); not shown: His tag
T2 sequence (Q9JI71 27-405 limits assumed): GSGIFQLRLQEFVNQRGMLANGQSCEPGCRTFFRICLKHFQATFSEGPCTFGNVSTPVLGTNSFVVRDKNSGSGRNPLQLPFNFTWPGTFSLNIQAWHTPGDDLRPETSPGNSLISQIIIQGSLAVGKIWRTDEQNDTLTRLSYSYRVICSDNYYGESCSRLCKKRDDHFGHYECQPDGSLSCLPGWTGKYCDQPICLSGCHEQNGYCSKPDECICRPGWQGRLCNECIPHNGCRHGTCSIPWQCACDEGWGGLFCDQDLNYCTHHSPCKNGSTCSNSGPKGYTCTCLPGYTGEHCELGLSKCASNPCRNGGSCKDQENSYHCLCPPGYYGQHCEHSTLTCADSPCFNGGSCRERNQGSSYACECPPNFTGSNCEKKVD
The assay is described as above. Here is the method:
as §1

T1 sequence (Q9NR61 26-404 limits assumed): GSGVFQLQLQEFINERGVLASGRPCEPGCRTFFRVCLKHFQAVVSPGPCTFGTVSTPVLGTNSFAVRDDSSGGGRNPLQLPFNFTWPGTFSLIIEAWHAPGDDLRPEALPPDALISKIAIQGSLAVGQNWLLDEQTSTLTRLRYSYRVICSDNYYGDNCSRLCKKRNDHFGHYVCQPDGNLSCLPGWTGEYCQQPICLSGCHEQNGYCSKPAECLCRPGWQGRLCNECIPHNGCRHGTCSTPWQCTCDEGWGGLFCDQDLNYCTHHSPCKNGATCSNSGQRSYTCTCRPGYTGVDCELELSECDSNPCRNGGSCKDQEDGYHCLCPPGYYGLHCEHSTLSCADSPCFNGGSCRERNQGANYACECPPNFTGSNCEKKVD

B1: YW26 (antibody, V domains shown)
VH: EVQLVESGGGLVQPGGSLRLSCAASGFTFTDNWISWVRQAPGKGLEWVGVINPNSGSTDYADSVKGRFTISADTSKNTAYLQMNSLRAEDTAVYYCARDNFGGYFDYWGQGTLVTVSS
VL: DIQMTQSPSSLSASVGDRVTITCRASQDVSTAVAWYQQKPGKAPKLLIYSASFLYSGVPSRFSGSGSGTDFTLTISSLQPEDFATYYCQQSYTTPPTFGQGTKVEIK
notes: Only the six HVRs are tied to the clone; also called clone 152.26; anti-DLL4 antibody
In assay [1], B1 came in with a dissociation constant Kd of 25 nM, a koff of 0.00074 s⁻¹ and an on-rate constant (kon) of 30000 M⁻¹ s⁻¹. Besides, in the assay with His-tagged murine DLL4, the Kd was 28 nM, the koff amounted to 0.0016 s⁻¹ and the on-rate constant (kon) turned out to be 57000 M⁻¹ s⁻¹.

B2: YW26.6 (antibody, V domains shown)
VH: B1 VH with V50L, N54Q, T58S
VL: B1 VL with T94G, P95Q, P96S
notes: Only the six HVRs are tied to the clone; also called clone 152.26.6
Consider B2, for which the Kd in assay [1] was 0.25 nM.

B3: YW26.14 (antibody, V domains shown)
VH: B1 VH with T28S, T30R
VL: B1 VL with Y92V, T93N, T94G, P96A
notes: also called clone 152.26.14
Turning to B3, in assay [1], binding was put at a Kd of 0.37 nM, the off-rate constant (koff) was determined as 6.6e-05 s⁻¹ and the kon is 180000 M⁻¹ s⁻¹. In the assay with His-tagged murine DLL4, this molecule yielded a Kd of 0.22 nM, a koff of 7.3e-05 s⁻¹ and an on-rate constant (kon) of 330000 M⁻¹ s⁻¹.

B4: YW26.34 (antibody, V domains shown)
VH: B1 VH with V50L, N54T, D59I
VL: B1 VL with T94G, P96S
notes: Only the six HVRs are tied to the clone; also called clone 152.26.34
For B4, in assay [1], binding was put at a Kd of 0.35 nM, the koff is 6.7e-05 s⁻¹ and the on-rate constant (kon) was 190000 M⁻¹ s⁻¹. In the assay with His-tagged murine DLL4, this molecule displayed an equilibrium dissociation constant (Kd) of 0.18 nM, a koff of 6.5e-05 s⁻¹ and a kon of 360000 M⁻¹ s⁻¹.

One may read the Kd as a measure of binding affinity in units of concentration. Read a low Kd as tighter binding. As a reminder, the koff is the first-order rate constant of dissociation. Higher therefore signals a short-lived complex. By kon is commonly meant the second-order rate constant of association.
